Among the data in paper PMC7334205 are ratio to parent values, retold here.

Experiment in all cases: bimolecular fluorescence complementation (BiFC), quantitative imaging of nuclear Venus fluorescence in cells
The target in assay [1] is VN-Impα2 (UniProt P52293). Conditions: 18 h post-transfection, mean ± SEM, three independent experiments, parent: est. 1.0, read off a plot.
For assay [2], the target named is VN-CIC (UniProt Q96RK0). Conditions: 18 h post-transfection; n = 258 (85Q) and 201 (mVS) nuclei; mean ± SEM, three independent experiments; parent: est. 1.0; read off a plot.
Assay [3] deals with VC-ataxin-1[85Q] (UniProt P54253). Conditions: 18 h post-transfection; n = 155 (wild-type Impα2) and 131 (mDE) nuclei; mean ± SEM, three independent experiments; parent: est. 1.0; read off a plot.

UniProt Q96RK0, sequence (Q96RK0 whole entry): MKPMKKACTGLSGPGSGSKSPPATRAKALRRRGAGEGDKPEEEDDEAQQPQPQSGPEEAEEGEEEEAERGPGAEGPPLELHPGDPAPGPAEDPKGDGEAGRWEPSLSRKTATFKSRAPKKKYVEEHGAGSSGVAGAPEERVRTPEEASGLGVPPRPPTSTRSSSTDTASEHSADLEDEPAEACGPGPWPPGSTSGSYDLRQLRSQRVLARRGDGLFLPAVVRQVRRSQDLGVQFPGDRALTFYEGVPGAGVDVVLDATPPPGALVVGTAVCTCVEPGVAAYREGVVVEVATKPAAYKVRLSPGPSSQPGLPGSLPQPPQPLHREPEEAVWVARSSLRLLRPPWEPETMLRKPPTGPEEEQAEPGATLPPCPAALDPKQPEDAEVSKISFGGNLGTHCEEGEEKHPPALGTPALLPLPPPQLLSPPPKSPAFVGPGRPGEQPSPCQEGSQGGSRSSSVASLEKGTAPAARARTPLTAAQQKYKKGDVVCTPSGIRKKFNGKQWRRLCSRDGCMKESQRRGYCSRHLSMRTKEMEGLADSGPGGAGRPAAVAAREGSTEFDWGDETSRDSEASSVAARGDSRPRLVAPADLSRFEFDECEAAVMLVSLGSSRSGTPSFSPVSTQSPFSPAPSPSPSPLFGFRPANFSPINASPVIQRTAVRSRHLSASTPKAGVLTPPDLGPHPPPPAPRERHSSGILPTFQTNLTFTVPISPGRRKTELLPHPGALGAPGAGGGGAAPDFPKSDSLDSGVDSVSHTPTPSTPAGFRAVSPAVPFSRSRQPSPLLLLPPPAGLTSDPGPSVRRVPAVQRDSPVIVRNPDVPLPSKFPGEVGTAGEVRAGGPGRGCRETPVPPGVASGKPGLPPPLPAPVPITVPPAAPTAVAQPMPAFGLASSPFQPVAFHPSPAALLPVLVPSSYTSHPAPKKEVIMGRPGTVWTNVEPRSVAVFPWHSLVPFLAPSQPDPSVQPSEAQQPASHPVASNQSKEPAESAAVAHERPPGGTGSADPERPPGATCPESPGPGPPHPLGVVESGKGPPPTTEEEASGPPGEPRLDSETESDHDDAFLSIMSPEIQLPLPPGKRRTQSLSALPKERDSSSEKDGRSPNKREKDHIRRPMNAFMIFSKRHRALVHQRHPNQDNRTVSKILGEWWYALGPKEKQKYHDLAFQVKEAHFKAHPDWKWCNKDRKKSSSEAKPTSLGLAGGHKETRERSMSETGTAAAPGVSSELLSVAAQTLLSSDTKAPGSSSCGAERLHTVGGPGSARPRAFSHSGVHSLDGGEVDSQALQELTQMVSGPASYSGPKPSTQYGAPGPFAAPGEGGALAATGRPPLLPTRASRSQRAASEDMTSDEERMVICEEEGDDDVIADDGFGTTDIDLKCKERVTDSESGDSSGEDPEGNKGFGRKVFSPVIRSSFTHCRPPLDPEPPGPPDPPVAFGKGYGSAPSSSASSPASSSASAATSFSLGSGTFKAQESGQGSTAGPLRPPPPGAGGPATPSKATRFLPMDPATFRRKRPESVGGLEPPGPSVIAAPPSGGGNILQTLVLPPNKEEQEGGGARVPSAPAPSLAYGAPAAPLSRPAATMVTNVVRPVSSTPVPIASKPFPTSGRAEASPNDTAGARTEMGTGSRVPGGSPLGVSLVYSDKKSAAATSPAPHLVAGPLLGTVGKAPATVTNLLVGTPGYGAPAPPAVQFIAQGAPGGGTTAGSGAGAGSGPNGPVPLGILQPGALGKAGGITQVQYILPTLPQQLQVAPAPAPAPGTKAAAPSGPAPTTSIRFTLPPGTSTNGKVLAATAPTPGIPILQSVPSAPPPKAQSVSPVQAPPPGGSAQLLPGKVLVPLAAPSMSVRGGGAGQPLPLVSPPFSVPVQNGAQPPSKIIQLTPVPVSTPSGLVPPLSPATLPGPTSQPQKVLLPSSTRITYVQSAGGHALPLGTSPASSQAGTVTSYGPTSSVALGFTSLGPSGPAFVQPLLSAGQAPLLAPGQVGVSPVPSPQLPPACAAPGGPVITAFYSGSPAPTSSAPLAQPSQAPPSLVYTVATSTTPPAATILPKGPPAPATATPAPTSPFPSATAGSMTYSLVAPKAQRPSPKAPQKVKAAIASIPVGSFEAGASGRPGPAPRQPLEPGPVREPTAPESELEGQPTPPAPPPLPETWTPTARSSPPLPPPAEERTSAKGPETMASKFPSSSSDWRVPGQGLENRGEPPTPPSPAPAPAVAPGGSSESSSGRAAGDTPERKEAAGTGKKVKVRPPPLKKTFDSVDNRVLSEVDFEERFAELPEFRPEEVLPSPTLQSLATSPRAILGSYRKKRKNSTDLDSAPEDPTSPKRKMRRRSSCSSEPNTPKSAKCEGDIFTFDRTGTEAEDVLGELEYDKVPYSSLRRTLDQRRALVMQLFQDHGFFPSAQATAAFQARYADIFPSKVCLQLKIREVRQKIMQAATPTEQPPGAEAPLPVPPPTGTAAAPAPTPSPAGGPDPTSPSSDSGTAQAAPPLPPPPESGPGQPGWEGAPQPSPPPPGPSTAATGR

With “VC-ataxin-1[85Q] (from UniProt P54253) K772T”, the ratio to parent in assay [1] (n = 155 (85Q) and 172 (K772T) nuclei) is 0.55. Take “VC-ataxin-1[85Q] (from UniProt P54253) V591A; S602D”: the ratio to parent came out at 0.72 in assay [1] (n = 101 and 101 nuclei); 0.47 in assay [2]. Take “VN-Impα2 (from UniProt P52293) D192K; E396R”: the ratio to parent in assay [3] turned out to be 0.75.
